Experimental data published in US20020062008A1 (ICOS, published 2002).
Each block holds one binder with its values, some of them ahead of it.

B1: soluble VCAM-1/IgG1 fusion protein (seven extracellular immunoglobulin-like domains) (Fc fusion, UniProt P19320 25-698, looked up)
chain: FKIETTPESRYLAQIGDSVSLTCSTTGCESPFFSWRTQIDSPLNGKVTNEGTTSTLTMNPVSFGNEHSYLCTATCESRKLEKGIQVEIYSFPKDPEIHLSGPLEAGKPITVKCSVADVYPFDRLEIDLLKGDHLMKSQEFLEDADRKSLETKSLEVTFTPVIEDIGKVLVCRAKLHIDEMDSVPTVRQAVKELQVYISPKNTVISVNPSTKLQEGGSVTMTCSSEGLPAPEIFWSKKLDNGNLQHLSGNATLTLIAMRMEDSGIYVCEGVNLIGKNRKEVELIVQEKPFTVEISPGPRIAAQIGDSVMLTCSVMGCESPSFSWRTQIDSPLSGKVRSEGTNSTLTLSPVSFENEHSYLCTVTCGHKKLEKGIQVELYSFPRDPEIEMSGGLVNGSSVTVSCKVPSVYPLDRLEIELLKGETILENIEFLEDTDMKSLENKSLEMTFIPTIEDTGKALVCQAKLHIDDMEFEPKQRQSTQTLYVNVAPRDTTVLVSPSSILEEGSSVNMTCLSQGFPAPKILWSRQLPNGELQPLSENATLTLISTKMEDSGVYLCEGINQAGRSRKEVELIIQVTPKDIKLTAFPSESVKEGDTVIISCTCGNVPETWIILKKKAETGDTVLKSIDGAYTIRKAQLKDAGVYECESKNKVGSQLRSLTLDVQGRENNKDYFSPE
notes: domain: seven extracellular immunoglobulin-like domains; not shown: IgG1 portion
B4: soluble ICAM-1/IgG1 fusion protein (Fc fusion, UniProt P05362 28-480, looked up)
chain: QTSVSPSKVILPRGGSVLVTCSTSCDQPKLLGIETPLPKKELLLPGNNRKVYELSNVQEDSQPMCYSNCPDGQSTAKTFLTVYWTPERVELAPLPSWQPVGKNLTLRCQVEGGAPRANLTVVLLRGEKELKREPAVGEPAEVTTTVLVRRDHHGANFSCRTELDLRPQGLELFENTSAPYQLQTFVLPATPPQLVSPRVLEVDTQGTVVCSLDGLFPVSEAQVHLALGDQRLNPTVTYGNDSFSAKASVSVTAEDEGTQRLTCAVILGNQSQETLQTVTIYSFPAPNVILTKPEVSEGTEVTVKCEAHPRAKVTLNGVPAQPLGPRAQLLLKATPEDNGRSFSCSATLEVAGQLIHKNQTRELRVLYGPRLDERDCPGNWTWPENSQQTPMCQAWGNPLPELKCLKDGTFPLPIGESVTVTRDLEGTYLCRARSTQGEVTRKVTVNVLSPRYE
notes: not shown: IgG1 portion (detected with anti-human IgG1)

What was measured:
[1] = target: T1, LFA-1 leucine zipper fusion protein (soluble CD11a/CD18) (UniProt P20701 26-1090; P05107 23-700); experiment: ELISA on LFA-1LZ captured with TS2/4.1
T1 construct: also called LFA-1LZ; captured CD11a/CD18
Experimental: (§1) The same protocol was used to immobilize the anti-CD11a antibody TS2/4.1 for immobilization of a LFA-1 leucine zipper (LFA-1LZ) fusion protein; LFA-1 was used as a negative control for VCAM-1 binding and a positive control for ICAM-1 binding. The plates were blocked with 300 μl/well 3% bovine serum albumin for one hour and washed in D-PBS. Tissue culture supernatants from stable CHO transfectants expressing either αd/CD18LZ or LFA-1LZ were added at 100 μl/well and allowed to incubate for 6 to 8 hours at 4° C. The plates were washed twice with Tris-buffered saline with Tween® 20 (TBS-T), followed by one wash with TBS (no Tween®) containing 2 mM each calcium chloride, magnesium chloride, and manganese chloride. The latter served as assay and wash buffer during the remainder of the assay.
(§2) After integrin capture, the plates were washed three times with 250 μl/well TBS. Purified CAM/Ig (see Example 12) was added to each well following serial 2:3 dilutions starting at a concentration of 10 to 20 μg/ml. CAM/Igs were allowed to bind for two hours at room temperature before plates were washed as above. Bound fusion protein was detected with horseradish peroxidase-conjugated goat anti-human Ig antibody (Jackson Labs) followed by development with o-phenyldiamine (OPD).

[2] = target: T2, human αd/CD18 heterodimer expressed on transfected cells (COS, CHO, JY) (human, UniProt P05107 23-769); experiment: adhesion of αdβ2-transfected CHO cells to coated wells
T2 construct: whole, on cells; also used as detergent lysate in immunoprecipitations; also called αd/CD18 CHO transfected cells; αd/CD18 co-transfectants
Experimental: For transfected and parental CHO cells, adhesion was performed using coated plates identical to those employed for eosinophil adhesion. […] A modification of a previously described gentle washing technique [Shanley, et al., J. Immunol. 160:1014 (1998)] was therefore employed. This technique allowed non-adherent cells to be dislodged from the inverted plate with centrifugation at 1×g for 30 minutes at 20° C. Remaining adherent cells were then removed using 0.1 M EDTA (Sigma) and counted by flow cytometry. In addition to VCAM-1, E-selection (100 ng/ml) was also used to coat wells in some adhesion experiments. In addition to the blocking monoclonal antibodies used in the eosinophil studies, immobilized VCAM-1 was pretreated with an appropriate dilution of F(ab′)₂ anti-VCAM-1 monoclonal antibody prior to the addition of CHO cells.
Chinese hamster ovary cells were transfected as described in Example 11. The αdβ₂-transfected CHO cells were cultured in DMEM/F12 media with 1 mM pyruvate and 2 mM L-glutamine (Biofluids) supplemented with 10% dialyzed FBS, 100 U/ml penicillin, 100 μg/ml streptomycin, and 600 μg/ml G418 (all from Life Technologies). Media for culture of the parental CHO cell line was similar except that non-dialyzed FBS (Life Technologies) was used and 0.1 mM hypoxanthine and 16 nM thymidine (Sigma) were used in place of the G418. […]

[3] = target: B1; experiment: ELISA, bound IgG4 detected with HP6023
[4] = target: T3, soluble ICAM-R/IgG1 fusion protein (UniProt P32942 30-485, limits assumed); experiment: ELISA, bound IgG4 detected with HP6023
T3 construct: not shown: IgG1 portion
T3 sequence (looked up): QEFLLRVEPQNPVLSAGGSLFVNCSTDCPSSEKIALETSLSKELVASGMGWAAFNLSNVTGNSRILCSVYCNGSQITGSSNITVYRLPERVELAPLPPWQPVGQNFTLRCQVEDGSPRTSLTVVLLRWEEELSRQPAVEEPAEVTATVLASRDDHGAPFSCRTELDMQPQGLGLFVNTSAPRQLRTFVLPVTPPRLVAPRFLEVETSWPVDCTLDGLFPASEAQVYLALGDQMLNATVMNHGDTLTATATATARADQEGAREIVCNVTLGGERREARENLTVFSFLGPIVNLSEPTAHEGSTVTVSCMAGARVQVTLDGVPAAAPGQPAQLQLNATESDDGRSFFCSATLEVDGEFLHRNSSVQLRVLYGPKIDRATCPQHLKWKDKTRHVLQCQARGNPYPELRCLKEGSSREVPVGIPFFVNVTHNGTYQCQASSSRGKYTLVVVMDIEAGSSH

[5] = target: T1, LFA-1 leucine zipper fusion protein …; experiment: ELISA, CAM/Ig on captured soluble CD11a/CD18
Experimental: as §1, §2

[6] = target: T4, α4β1 expressed on CHO cells (UniProt P13612 34-1032; P05556 21-798, limits assumed); experiment: adhesion of CHO transfectants to immobilized CAM, crystal violet
T4 construct: whole, on cells; also called α4 transformed CHO cells; α4 transfected line
Experimental: (§3) The ability of CHO cells expressing either α₄β₁ or αdβ₂ to bind a five domain VCAM-1/Ig fusion protein or ICAM-1/Ig fusion protein was tested as follows. CAMs were immobilized on 96 well microtiter plates at 0.5 μg/well in bicarbonate buffer (pH 9.5). Plates were blocked with 1% fish gelatin and treated with either buffer, irrelevant antibody or a blocking VCAM-1 antibody. […] Cells were washed before addition to the CAM-coated wells at a density of 100,000 cells per well. Cells were incubated in the presence of the immobilized […] for twenty minutes before addition of 5% glutaraldehyde. Following fixation, plates were washed with distilled water and cells were stained with 1% crystal violet, After destaining with 66% ethanol for several hours, absorbance at 570 nm was measured on a Dynatech plate reader.

[7] = target: T2, human αd/CD18 heterodimer expressed on …; experiment: as above
Experimental: as §3

[8] = target: B4; experiment: ELISA, bound IgG4 detected with HP6023
bovine serum albumin = target: T5, bovine serum albumin (bovine, UniProt P02769 25-607); experiment: ELISA, bound IgG4 detected with HP6023
T5 construct: also called BSA

[9] = target: T2, human αd/CD18 heterodimer expressed on …; experiment: adhesion of CHO transfectants to immobilized CAM, crystal violet A570
Experimental: as §3

T5 sequence (P02769 25-607 limits assumed): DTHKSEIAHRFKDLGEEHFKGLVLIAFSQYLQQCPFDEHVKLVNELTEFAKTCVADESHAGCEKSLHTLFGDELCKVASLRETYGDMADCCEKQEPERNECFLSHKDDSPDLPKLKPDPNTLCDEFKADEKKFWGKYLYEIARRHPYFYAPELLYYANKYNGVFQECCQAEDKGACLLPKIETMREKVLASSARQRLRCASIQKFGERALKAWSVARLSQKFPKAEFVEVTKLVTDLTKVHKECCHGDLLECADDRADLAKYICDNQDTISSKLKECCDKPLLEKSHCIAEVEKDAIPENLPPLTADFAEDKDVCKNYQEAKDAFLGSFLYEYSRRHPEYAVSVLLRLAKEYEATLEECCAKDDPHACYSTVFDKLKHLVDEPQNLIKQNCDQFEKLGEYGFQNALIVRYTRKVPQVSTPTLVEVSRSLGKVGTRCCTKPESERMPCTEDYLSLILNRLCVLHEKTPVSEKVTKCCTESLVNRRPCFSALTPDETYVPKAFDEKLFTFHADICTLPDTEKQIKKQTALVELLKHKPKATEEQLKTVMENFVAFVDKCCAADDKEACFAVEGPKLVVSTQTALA

Binder: B1
binding result [1]: no binding

B2: E-selectin, immobilized recombinant (ligand, UniProt P16581 22-556, looked up)
chain: WSYNTSTEAMTYDEASAYCQQRYTHLVAIQNKEEIEYLNSILSYSPSYYWIGIRKVNNVWVWVGTQKPLTEEAKNWAPGEPNNRQKDEDCVEIYIKREKDVGMWNDERCSKKKLALCYTAACTNTSCSGHGECVETINNYTCKCDPGFSGLKCEQIVNCTALESPEHGSLVCSHPLGNFSYNSSCSISCDRGYLPSSMETMQCMSSGEWSAPIPACNVVECDAVTNPANGFVECFQNPGSFPWNTTCTFDCEEGFELMGAQSLQCTSSGNWDNEKPTCKAVTCRAVRQPQNGSVRCSHSPAGEFTFKSSCNFTCEEGFMLQGPAQVECTTQGQWTQQIPVCEAFQCTALSNPERGYMNCLPSASGSFRYGSSCEFSCEQGFVLKGSKRLQCGPTGEWDNEKPTCEAVRCDAVHQPPKGLVRCAHSPIGEFTYKSSCAFSCEEGFELHGSTQLECTSQGQWTEEVPSCQVVKCSSLAVPGKINMSCSGEPVFGTVCKFACPEGWTLNGSAARTCGATGHWSGLLPTCEAPTESNIP
notes: also called E-selection
binding result [2]: no binding (tested: 100 ng/ml coat)

Binder: B4
fold above background [5]: ~15 fold
binding result [6]: no binding (tested: 0.5 µg/well coat)
binding result [7]: no binding (tested: 0.5 µg/well coat)

Continued, values first:

binding result [3]: no binding
binding result [4]: no binding
B3: CD11a I domain/IgG chimeric protein (Fc fusion, UniProt P20701 153-332, looked up)
chain: GNVDLVFLFDGSMSLQPDEFQKILDFMKDVMKKLSNTSYQFAAVQFSTSYKTEFDFSDYVKRKDPDALLKHVKHMLLLTNTFGAINYVATEVFREELGARPDATKVLIIITDGEATDSGNIDAAKDIIRYIIGIGKHFQTKESQETLHKFASKPASEFVKILDTFEKLKDLFTELQKKIY
notes: domain: I domain; Negative control; also called CD11a/IgG4 protein; not shown: IgG4 portion

binding result [8]: no binding
binding result (bovine serum albumin): no binding
B5: human αd I domain/IgG4 fusion protein (Fc fusion)
chain: IVFLIDGSGSIDQNDFNQMKGFVQAVMGQFEGTDTLFALMQYSNLLKIHFTFTQFRTSPSQQSLVDPIVQLKGLTFTATGILTVVTQLFHHKNGARKSAKKILIVITDGQKYKDPLEYSDVIPQAEKAGIIRYAIGVGHAFQGPTARQELNTISSAPPQDHVFKVDNFAALGSIQKQLQEKIYAVEGTQSRASSSFQHEMSQE
notes: Residue limits approximate; also called Iαd/IgG4; I domain chimera; not shown: human IgG4 portion

binding result [9]: binds
B6: VCAM-1 domains 1 and 2 fused to human immunoglobulin Fc (Fc fusion, UniProt P19320 25-220, looked up, not shown: a dimerising Fc or GST)
chain: FKIETTPESRYLAQIGDSVSLTCSTTGCESPFFSWRTQIDSPLNGKVTNEGTTSTLTMNPVSFGNEHSYLCTATCESRKLEKGIQVEIYSFPKDPEIHLSGPLEAGKPITVKCSVADVYPFDRLEIDLLKGDHLMKSQEFLEDADRKSLETKSLEVTFTPVIEDIGKVLVCRAKLHIDEMDSVPTVRQAVKELQVY
notes: domain: domains 1 and 2; also called two domain form of VCAM-1
